Measured values as given in patent publication US7005505 (Genentech, dated 2006).

Columns and labels:
FLT-1 IgG [1] = molecular target: T1, FLT-1 IgG (UniProt P17948 27-758); assay: competition with 125I-VEGF165 for FLT-1-IgG, with heparin
T1 construct: Construct only cited from Park et al. 1994; also called FLT-IgG; FLT-1 receptor-IgG chimera; not shown: IgG part of the chimera (captured by anti-human IgG Fc)
Experimental: (§1) After the supernatant was discarded, the wells were washed three times in washing buffer (0.01% Tween 80 in PBS). The plate was blocked (300 µl/well) for one hr in assay buffer (0.5% BSA, 0.03% Tween 80, 0.01% Thimerosal in PBS). The supernatant was discarded and the wells were washed. […] Aliquots of this solution (100 µl) were added to pre-coated microtiter plates and incubated for 4 hr at ambient temperature with gentle agitation. The supernatant was discarded, the plate washed, and individual microtiter wells were counted by gamma scintigraphy (LKB model 1277).

FLT-1 IgG [2] = molecular target: T1, FLT-1 IgG; assay: competition with 125I-VEGF165 for FLT-1-IgG, radioligand plate assay, no heparin
Experimental: as §1

KDR-IgG [3] = molecular target: T2, KDR-IgG (UniProt P35968 20-764); assay: competition with 125I-VEGF165 for KDR-IgG, n=8
T2 construct: Construct only cited from Park et al. 1994; also called KDR receptor-IgG chimera; soluble KDR; not shown: IgG part of the chimera (captured by anti-human IgG Fc)
Experimental: as §1
(§2) In addition to the specific amino acid substitutions, the table indicates the mean residue number for the position of the mutation(s). For a given mutant, this number is the average of the altered positions.

KDR-IgG [4] = molecular target: T2, KDR-IgG; assay: competition with 125I-VEGF165 for KDR-IgG, radioligand plate assay, no heparin
Experimental: as §1, §2

FLT-1 IgG [5] = molecular target: T1, FLT-1 IgG; assay: competition with 125I-VEGF165 for FLT-1-IgG, radioligand plate assay
Experimental: as §1

T1 sequence (P17948 27-758): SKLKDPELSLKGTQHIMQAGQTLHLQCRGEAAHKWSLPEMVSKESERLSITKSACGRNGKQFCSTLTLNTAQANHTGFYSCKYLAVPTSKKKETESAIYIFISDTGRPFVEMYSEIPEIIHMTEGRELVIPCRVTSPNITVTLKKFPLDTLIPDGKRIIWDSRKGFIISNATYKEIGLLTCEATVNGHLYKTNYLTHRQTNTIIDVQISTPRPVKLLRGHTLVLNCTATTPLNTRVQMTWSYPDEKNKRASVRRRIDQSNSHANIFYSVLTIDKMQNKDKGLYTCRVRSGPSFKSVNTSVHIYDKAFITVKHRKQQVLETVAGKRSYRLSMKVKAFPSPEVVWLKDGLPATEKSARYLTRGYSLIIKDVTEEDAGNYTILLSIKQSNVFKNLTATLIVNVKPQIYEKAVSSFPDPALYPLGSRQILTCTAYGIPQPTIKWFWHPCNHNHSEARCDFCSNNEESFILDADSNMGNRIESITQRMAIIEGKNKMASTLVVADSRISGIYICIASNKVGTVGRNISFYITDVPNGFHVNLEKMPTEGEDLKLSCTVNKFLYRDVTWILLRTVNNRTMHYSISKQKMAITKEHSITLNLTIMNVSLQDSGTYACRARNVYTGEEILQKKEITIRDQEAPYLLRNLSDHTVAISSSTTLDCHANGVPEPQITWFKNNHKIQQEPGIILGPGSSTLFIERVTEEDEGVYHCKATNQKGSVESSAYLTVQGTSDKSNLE
T2 sequence (P35968 20-764): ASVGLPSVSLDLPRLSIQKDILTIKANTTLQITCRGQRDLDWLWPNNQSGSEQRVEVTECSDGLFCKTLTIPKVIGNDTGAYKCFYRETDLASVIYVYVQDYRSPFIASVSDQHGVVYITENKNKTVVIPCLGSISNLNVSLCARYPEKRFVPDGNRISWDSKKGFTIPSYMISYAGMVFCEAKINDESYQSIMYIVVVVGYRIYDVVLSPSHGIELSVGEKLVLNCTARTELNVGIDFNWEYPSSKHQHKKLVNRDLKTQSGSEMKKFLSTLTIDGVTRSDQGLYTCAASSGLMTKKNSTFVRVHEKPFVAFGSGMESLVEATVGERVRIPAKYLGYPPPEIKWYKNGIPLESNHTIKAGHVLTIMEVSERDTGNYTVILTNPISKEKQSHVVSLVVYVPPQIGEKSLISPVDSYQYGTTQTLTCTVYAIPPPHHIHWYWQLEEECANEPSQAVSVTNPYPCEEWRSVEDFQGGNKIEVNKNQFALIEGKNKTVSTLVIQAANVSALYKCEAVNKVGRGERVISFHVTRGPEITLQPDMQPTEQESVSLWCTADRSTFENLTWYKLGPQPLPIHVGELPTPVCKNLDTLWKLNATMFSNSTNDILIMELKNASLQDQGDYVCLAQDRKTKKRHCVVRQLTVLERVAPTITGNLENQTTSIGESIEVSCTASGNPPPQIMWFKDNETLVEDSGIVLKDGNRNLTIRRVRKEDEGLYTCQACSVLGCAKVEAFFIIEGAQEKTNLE

| IC50 (FLT-1 IgG [1]) | IC50 (FLT-1 IgG [2]) | IC50 (KDR-IgG [3]) | IC50 (KDR-IgG [4]) | IC50 (FLT-1 IgG [5]) | Binder |
| --- | --- | --- | --- | --- | --- |
| 0.015 nM | 0.022 nM | 0.031 nM | 0.03 nM |  | wildtype VEGF165 expressed in 293 cells (ligand, N-linked carbohydrate at Asn75, Transiently expressed in 293 cells; tested as conditioned medium) APMAEGGGQNHHEVVKFMDVYQRSYCHPIETLVDIFQEYPDEIEYIFKPSCVPLMRCGGCCNDEGLECVPTEESNITMQIMRIKPHQGQHIGEMSFLQHNKCECRPKKDRARQENPCGPCSERRKHLFVQDPQTCKCSCKNTDSRCKARQLELNERTCRCDKPRR |
| 0.65 nM | 0.98 nM |  |  | 0.0356 µg/mL | E64N, L66S VEGF (ligand, putative extra N-linked glycosylation at position 64, Neo-glycosylation mutant from 293 cells, conditioned medium) APMAEGGGQNHHEVVKFMDVYQRSYCHPIETLVDIFQEYPDEIEYIFKPSCVPLMRCGGCCNDNGSECVPTEESNITMQIMRIKPHQGQHIGEMSFLQHNKCECRPKKDRARQENPCGPCSERRKHLFVQDPQTCKCSCKNTDSRCKARQLELNERTCRCDKPRR |
